# Paper PMC5207133
# Like-named read-outs stand apart in the source and are kept apart here.
# Key:
# Ku70/80 heterodimer [1] = target: T1, Ku70/80 heterodimer (human (HeLa cells), UniProt P12956;P13010 1-609;1-732); conditions: protein: native; copies: 1;1; label: 3'-FAM on strand 1; blunt
# [2] = target: T2, Ku70/80 heterodimer;DNA-PKcs;APLF (human (HeLa cells);human (HeLa …, UniProt P12956;P13010;P78527;Q8IW19 1-609;1-732;1-4128;1-511, ||)); conditions: protein: native;native;recombinant; tags: ;;GST removed by PreScission protease; copies: 1;1;1;1; label: 3'-FAM on strand 1; blunt
# [3] = target: T3, Ku70/80 heterodimer;DNA-PKcs (human (HeLa cells);human (HeLa cells), UniProt P12956;P13010;P78527 1-609;1-732;1-4128, |); conditions: protein: native;native, tags: ;, copies: 1;1;1, blunt
# Ku70/80 heterodimer;APLF [4] = target: T4, Ku70/80 heterodimer;APLF (human (HeLa cells);human, UniProt P12956;P13010;Q8IW19 1-609;1-732;1-511, |); conditions: protein: native;recombinant, tags: ;GST removed by PreScission protease, copies: 1;1;1, blunt
# T4 sequence (P12956 whole entry, chain 1 of 3): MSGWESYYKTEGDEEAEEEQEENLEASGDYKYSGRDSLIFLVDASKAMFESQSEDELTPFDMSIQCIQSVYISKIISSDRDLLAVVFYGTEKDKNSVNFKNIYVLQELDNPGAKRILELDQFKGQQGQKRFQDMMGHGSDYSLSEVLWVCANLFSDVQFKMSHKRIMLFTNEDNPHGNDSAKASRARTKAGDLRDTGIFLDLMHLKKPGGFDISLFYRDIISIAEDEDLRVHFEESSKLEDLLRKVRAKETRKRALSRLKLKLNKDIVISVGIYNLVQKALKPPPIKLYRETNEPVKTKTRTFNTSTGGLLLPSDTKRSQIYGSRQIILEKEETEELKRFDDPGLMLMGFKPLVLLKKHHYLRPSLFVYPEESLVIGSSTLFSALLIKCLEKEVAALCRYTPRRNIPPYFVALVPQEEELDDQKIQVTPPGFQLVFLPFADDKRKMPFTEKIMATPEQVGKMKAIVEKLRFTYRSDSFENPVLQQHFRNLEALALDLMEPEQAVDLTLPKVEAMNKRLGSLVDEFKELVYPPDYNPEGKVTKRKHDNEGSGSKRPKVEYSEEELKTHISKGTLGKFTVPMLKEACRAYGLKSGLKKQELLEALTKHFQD
# T4 sequence (P13010 whole entry, chain 2 of 3): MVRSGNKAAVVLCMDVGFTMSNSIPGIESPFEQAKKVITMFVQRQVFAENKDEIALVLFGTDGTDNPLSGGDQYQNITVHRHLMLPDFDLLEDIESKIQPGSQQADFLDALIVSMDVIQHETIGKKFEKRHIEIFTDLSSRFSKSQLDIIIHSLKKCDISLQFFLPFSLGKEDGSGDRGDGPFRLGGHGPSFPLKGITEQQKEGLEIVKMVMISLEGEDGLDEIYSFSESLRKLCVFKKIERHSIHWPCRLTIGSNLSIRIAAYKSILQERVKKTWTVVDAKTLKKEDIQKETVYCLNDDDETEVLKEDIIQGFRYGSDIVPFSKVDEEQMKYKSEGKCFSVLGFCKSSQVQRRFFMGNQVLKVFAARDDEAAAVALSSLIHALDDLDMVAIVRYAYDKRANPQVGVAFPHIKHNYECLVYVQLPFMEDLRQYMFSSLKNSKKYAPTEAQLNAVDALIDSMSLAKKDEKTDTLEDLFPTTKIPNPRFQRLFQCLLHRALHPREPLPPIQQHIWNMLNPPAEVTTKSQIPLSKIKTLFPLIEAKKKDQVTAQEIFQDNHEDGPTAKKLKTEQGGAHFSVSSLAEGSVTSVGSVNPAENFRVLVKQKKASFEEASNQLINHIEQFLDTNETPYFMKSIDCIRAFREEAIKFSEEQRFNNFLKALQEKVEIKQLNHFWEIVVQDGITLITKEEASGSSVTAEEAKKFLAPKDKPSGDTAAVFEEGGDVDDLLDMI
# T4 sequence (Q8IW19 whole entry, chain 3 of 3): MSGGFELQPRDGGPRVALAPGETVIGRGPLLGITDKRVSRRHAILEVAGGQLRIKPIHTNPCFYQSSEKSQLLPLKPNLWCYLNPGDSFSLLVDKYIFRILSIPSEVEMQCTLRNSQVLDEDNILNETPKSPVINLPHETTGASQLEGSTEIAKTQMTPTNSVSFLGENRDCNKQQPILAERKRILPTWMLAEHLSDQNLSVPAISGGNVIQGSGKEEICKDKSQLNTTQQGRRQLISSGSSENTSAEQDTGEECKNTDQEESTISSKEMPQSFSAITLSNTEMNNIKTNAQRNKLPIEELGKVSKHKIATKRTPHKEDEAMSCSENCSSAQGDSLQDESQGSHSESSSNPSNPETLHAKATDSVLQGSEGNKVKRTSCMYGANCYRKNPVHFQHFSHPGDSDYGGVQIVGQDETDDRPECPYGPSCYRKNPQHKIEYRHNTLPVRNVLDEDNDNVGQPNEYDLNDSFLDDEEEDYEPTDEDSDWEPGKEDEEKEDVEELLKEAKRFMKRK
# APLF [5] = target: T5, APLF (human, UniProt Q8IW19 1-511); conditions: protein: recombinant; tags: GST removed by PreScission protease; label: 3'-FAM on strand 1; blunt
# [6] = target: XRCC4-DNA ligase IV (X4L4) (human, UniProt Q13426;P49917 1-336;1-911); conditions: protein: recombinant; chain copies: 2;1; 20-bp duplex with stem-loop at one end and 5-nt overhang at the other
# Sequence of XRCC4-DNA ligase IV (X4L4) (Q13426 whole entry, chain 1 of 2): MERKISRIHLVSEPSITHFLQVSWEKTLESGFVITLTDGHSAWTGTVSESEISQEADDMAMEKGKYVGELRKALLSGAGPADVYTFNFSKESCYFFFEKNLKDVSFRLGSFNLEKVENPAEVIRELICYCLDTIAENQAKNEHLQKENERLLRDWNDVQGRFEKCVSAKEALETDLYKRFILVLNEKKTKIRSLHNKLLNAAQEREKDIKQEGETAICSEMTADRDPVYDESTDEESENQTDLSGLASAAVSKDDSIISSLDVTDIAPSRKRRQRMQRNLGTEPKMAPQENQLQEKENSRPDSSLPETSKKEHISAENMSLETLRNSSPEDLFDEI
# Sequence of XRCC4-DNA ligase IV (X4L4) (P49917 whole entry, chain 2 of 2): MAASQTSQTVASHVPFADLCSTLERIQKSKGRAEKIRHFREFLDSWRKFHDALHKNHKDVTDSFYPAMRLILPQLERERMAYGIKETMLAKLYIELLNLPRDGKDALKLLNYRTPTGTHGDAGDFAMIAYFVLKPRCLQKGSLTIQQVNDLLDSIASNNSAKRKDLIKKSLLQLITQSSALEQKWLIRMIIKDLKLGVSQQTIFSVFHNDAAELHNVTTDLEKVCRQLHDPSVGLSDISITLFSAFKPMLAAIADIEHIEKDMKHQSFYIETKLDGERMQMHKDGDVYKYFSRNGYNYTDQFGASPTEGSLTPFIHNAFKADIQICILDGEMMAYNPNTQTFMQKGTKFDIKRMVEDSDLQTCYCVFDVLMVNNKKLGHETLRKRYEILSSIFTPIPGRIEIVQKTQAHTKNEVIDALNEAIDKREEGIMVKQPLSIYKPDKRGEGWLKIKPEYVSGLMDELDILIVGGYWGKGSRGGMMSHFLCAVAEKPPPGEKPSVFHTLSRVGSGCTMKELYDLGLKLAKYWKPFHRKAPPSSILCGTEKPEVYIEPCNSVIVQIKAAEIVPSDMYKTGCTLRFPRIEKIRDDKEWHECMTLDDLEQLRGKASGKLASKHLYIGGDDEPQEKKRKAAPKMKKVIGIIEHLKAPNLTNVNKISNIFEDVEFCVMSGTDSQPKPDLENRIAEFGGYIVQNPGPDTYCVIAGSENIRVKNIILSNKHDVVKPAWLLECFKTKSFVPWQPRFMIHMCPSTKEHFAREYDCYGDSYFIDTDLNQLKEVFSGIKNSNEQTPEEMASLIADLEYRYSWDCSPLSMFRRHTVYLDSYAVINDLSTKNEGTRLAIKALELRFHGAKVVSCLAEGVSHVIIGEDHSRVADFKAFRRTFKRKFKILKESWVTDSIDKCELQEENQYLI
# [7] = target: T6, Ku70/80 heterodimer;XRCC4-DNA ligase IV (X4L4);APLF (human (HeLa cells);human;human, UniProt P12956;P13010;Q13426;P49917;Q8IW19 1-609;1-732;1-336;1-911;1-511, ||); conditions: protein: native;recombinant;recombinant; tags: ;;GST removed by PreScission protease; copies: 1;1;2;1;1; 20-bp duplex with stem-loop at one end and 5-nt overhang at the other
# [8] = target: Ku70/80 heterodimer;XRCC4-DNA ligase IV (X4L4) (human (HeLa cells);human, UniProt P12956;P13010;Q13426;P49917 1-609;1-732;1-336;1-911, |); conditions: protein: native;recombinant; tags: ;; copies: 1;1;2;1; 20-bp duplex with stem-loop at one end and 5-nt overhang at the other
# Sequence of Ku70/80 heterodimer;XRCC4-DNA ligase IV (X4L4) (P12956 whole entry, chain 1 of 4): as the sequence (P12956 whole entry, chain 1 of 3) above
# Sequence of Ku70/80 heterodimer;XRCC4-DNA ligase IV (X4L4) (P13010 whole entry, chain 2 of 4): as the sequence (P13010 whole entry, chain 2 of 3) above
# Sequence of Ku70/80 heterodimer;XRCC4-DNA ligase IV (X4L4) (Q13426 whole entry, chain 3 of 4): as the sequence (Q13426 whole entry, chain 1 of 2) above
# Sequence of Ku70/80 heterodimer;XRCC4-DNA ligase IV (X4L4) (P49917 whole entry, chain 4 of 4): as the sequence (P49917 whole entry, chain 2 of 2) above
# Ku70/80 heterodimer [9] = target: T1, Ku70/80 heterodimer; conditions: protein: native; copies: 1;1; 20-bp duplex with stem-loop at one end and 5-nt overhang at the other
# APLF [10] = target: T5, APLF; conditions: protein: recombinant; tags: GST removed by PreScission protease; 20-bp duplex with stem-loop at one end and 5-nt overhang at the other
# [11] = target: T3, Ku70/80 heterodimer;DNA-PKcs; conditions: protein: native;native; tags: ;; copies: 1;1;1; 20-bp duplex with stem-loop at one end and 5-nt overhang at the other
# [12] = target: T2, Ku70/80 heterodimer;DNA-PKcs;APLF; conditions: protein: native;native;recombinant; tags: ;;GST removed by PreScission protease; copies: 1;1;1;1; 20-bp duplex with stem-loop at one end and 5-nt overhang at the other
# Ku70/80 heterodimer;APLF [13] = target: T4, Ku70/80 heterodimer;APLF; conditions: protein: native;recombinant; tags: ;GST removed by PreScission protease; copies: 1;1;1; 20-bp duplex with stem-loop at one end and 5-nt overhang at the other
# [14] = target: T6, Ku70/80 heterodimer;XRCC4-DNA ligase IV …; conditions: protein: native;recombinant;recombinant; tags: ;;GST removed by PreScission protease; copies: 1;1;2;1;1; two stem-loop duplexes (strands 1+2, 3+4) annealing via complementary 10-nt A/T overhangs
# Ku70/80 heterodimer [15] = target: T1, Ku70/80 heterodimer; conditions: protein: native; copies: 1;1; label: 3'-FAM on strand 2; blunt
# [16] = target: T2, Ku70/80 heterodimer;DNA-PKcs;APLF; conditions: protein: native;native;recombinant; tags: ;;GST removed by PreScission protease; copies: 1;1;1;1; label: 3'-FAM on strand 2; blunt
# T1 sequence (P12956 whole entry, chain 1 of 2): as the sequence (P12956 whole entry, chain 1 of 3) above
# T1 sequence (P13010 whole entry, chain 2 of 2): as the sequence (P13010 whole entry, chain 2 of 3) above
binder,measurement,setting,value
40bpDNA 3'-FAM (dsDNA) DNA 1: GGATACACAACAGACCGCAACACTCAGATTACTTTTCGCC DNA 2: GGCGAAAAGTAATCTGAGTGTTGCGGTCTGTTGTGTATCC,binding result,Ku70/80 heterodimer [1],binds
same,binding result,[2],binds
same,binding result,[3]; label: 3'-FAM on strand 1,binds
same,binding result,Ku70/80 heterodimer;APLF [4]; label: 3'-FAM on strand 1,binds
same,binding result,APLF [5],no binding
20bpDNA (stem-loop A) (structured_DNA) DNA 1: CCCACCCAAAAATCAATAATCGACCCTTTCGACCCGCGC DNA 2: GCGCGGGTTATTTGATTTTTGGGTGGGGTCGA,binding result,[6],no binding
same,binding result,[7],binds
same,binding result,[8],binds
same,binding result,Ku70/80 heterodimer [9],binds
same,binding result,APLF [10],no binding
same,binding result,[11],binds
same,binding result,[12],binds
same,binding result,Ku70/80 heterodimer;APLF [13],binds
20bpDNA-10nt (stem-loop B plus complementary stem-loop) (structured_DNA) DNA 1: CCCACCCAAAAATCAATAATCGACCCTTTCGACCCGCGC DNA 2: GCGCGGGTTATTTGATTTTTGGGTGGGAAAAAAAAAA DNA 3: TTTTTTTTTTCCCACCCAAAAATCAAATAATCGACCCTTTCGACCCGCGC DNA 4: GCGCGGGTTATTTGATTTTTGGGTGGG,binding result,[14],binds
25bpDNA 3'-FAM (dsDNA) DNA 1: AGCATTGACTGGCATCGTAGCATCC DNA 2: GGATGCTACGATGCCAGTCAATGCT,binding result,Ku70/80 heterodimer [15],binds
same,binding result,[3]; label: 3'-FAM on strand 2,binds
same,binding result,Ku70/80 heterodimer;APLF [4]; label: 3'-FAM on strand 2,binds
same,binding result,[16],binds
